Source: patent publication US20120134993A1

Tests used:
human FGF-9 (human) = human FGF-9 (human) (UniProt P31371); experiment: cell-based or functional assay
[1] = biological target: recombinant human FGF6 (human) (UniProt P10767); experiment: cell-based or functional assay
[2] = biological target: recombinant human FGF1 (human) (UniProt P05230); experiment: cell-based or functional assay
[3] = biological target: recombinant human FGF4 (human) (UniProt P08620); experiment: cell-based or functional assay
Sequence of recombinant human FGF4 (human) (P08620 31-206 limits assumed): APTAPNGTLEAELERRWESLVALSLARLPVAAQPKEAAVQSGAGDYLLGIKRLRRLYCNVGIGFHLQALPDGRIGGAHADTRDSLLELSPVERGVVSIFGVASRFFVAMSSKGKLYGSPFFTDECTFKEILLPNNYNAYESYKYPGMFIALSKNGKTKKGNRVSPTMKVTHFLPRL

[4] = biological target: recombinant human FGF2 (human) (UniProt P09038); experiment: cell-based or functional assay
Sequence of recombinant human FGF2 (human) (P09038 143-288 limits assumed): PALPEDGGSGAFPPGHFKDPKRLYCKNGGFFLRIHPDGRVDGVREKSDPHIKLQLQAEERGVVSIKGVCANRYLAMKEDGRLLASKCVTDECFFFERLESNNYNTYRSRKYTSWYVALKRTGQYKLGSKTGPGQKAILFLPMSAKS

[5] = biological target: recombinant human FGF-8b (human) (UniProt P55075); experiment: cell-based or functional assay
Sequence of recombinant human FGF-8b (human) (P55075 other isoform, or with tags, fused parts or gaps limits assumed): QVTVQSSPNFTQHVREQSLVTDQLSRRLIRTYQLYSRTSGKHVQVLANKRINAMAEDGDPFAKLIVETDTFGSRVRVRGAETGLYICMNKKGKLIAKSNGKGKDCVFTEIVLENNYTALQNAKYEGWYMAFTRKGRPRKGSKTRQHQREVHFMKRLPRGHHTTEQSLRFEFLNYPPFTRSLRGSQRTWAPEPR

[6] = biological target: recombinant human FGF-8b (human) (UniProt P55075); experiment: direct binding ELISA, FGF-8b coated, FGFR-Fc titrated with heparin, anti-human Fc-HRP
[7] = biological target: recombinant human FGF-17 (human) (UniProt O60258); experiment: direct binding ELISA, FGF-17 coated, FGFR-Fc titrated with heparin, anti-human Fc-HRP
Sequence of recombinant human FGF-17 (human) (O60258 23-216 limits assumed): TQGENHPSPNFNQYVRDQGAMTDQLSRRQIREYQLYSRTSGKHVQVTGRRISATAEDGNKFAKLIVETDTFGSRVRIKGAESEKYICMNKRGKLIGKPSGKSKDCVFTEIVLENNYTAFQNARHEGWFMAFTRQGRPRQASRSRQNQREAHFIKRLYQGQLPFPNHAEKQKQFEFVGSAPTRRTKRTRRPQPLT

human VEGF-A (human) = human VEGF-A (human) (UniProt P15692); experiment: SPR (Biacore T100), VEGF-A immobilized, 100 nM VEGFR-2-Fc5 injected, 1:1 dissociation fit
Sequence of human VEGF-A (human) (P15692 other isoform, or with tags, fused parts or gaps limits assumed): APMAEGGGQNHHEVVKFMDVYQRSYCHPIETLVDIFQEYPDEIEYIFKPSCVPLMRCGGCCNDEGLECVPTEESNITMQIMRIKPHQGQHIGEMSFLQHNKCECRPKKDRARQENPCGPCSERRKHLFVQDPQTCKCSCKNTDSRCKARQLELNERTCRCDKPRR

Sequence of recombinant human FGF1 (human) (P05230 16-155 limits assumed): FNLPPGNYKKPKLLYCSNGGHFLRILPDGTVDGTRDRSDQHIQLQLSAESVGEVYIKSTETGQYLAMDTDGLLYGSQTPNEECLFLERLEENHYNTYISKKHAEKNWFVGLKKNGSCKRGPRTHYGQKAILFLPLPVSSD
Sequence of recombinant human FGF6 (human) (P10767 83-208 limits assumed): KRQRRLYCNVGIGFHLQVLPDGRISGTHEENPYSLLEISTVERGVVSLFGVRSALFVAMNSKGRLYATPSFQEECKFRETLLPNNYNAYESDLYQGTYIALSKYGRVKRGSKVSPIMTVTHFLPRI
Sequence of human FGFR1-Fc (R&D Systems) (P11362 22-376): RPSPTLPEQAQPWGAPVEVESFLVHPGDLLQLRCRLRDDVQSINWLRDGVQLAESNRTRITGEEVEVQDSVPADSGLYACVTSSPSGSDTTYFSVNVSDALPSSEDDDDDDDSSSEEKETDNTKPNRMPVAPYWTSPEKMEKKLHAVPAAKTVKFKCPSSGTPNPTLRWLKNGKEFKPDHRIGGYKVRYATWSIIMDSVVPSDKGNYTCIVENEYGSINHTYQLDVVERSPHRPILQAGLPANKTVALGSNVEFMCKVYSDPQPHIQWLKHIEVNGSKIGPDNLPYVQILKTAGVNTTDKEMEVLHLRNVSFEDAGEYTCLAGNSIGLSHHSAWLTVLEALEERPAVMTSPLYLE

human FGFR1-Fc (R&D Systems) (from UniProt P11362 22-376) (Fc fusion)
Proliferation IC50, FGF-9-stimulated HCO osteoblasts (3H-thymidine) (human FGF-9 (human)): 1.1 nM
IC50, FGF-stimulated HUVEC proliferation (3H-thymidine) [1]: 0.42 nM
IC50, FGF-stimulated HUVEC proliferation (3H-thymidine) [2]: 0.63 nM
IC50, FGF-stimulated HUVEC proliferation (3H-thymidine) [3]: 0.53 nM
IC50, FGF-stimulated HUVEC proliferation (3H-thymidine) [4]: 0.92 nM

human FGFR3-Fc (R&D Systems) (from UniProt P22607 23-375) (Fc fusion)
Proliferation IC50, FGF-9-stimulated HCO osteoblasts (3H-thymidine) (human FGF-9 (human)): 0.44 nM
IC50, FGF-stimulated HUVEC proliferation (3H-thymidine) [1]: 9.96 nM
IC50, FGF-stimulated HUVEC proliferation (3H-thymidine) [2]: 0.53 nM
IC50, FGF-stimulated HUVEC proliferation (3H-thymidine) [3]: 1.06 nM
Proliferation IC50, FGF8b-stimulated LNCap cells (3H-thymidine) [5]: 0.79 nM
IC50, FGF-stimulated HUVEC proliferation (3H-thymidine) [4]: 5.5 nM
IC50 [6]: 23.4 nM
IC50 [7]: 30.1 nM

VEGFR-2-Fc5 (from UniProt P0DOX5 218-449) (Fc fusion)
koff (human VEGF-A (human)): 0.0002 s⁻¹

human FGFR2-Fc (R&D Systems) (from UniProt P21802 22-377) (Fc fusion)
Proliferation IC50, FGF-9-stimulated HCO osteoblasts (3H-thymidine) (human FGF-9 (human)): 0.49 nM
IC50, FGF-stimulated HUVEC proliferation (3H-thymidine) [1]: 0.3 nM
IC50, FGF-stimulated HUVEC proliferation (3H-thymidine) [2]: 0.42 nM
IC50, FGF-stimulated HUVEC proliferation (3H-thymidine) [3]: 0.48 nM
Proliferation IC50, FGF8b-stimulated LNCap cells (3H-thymidine) [5]: 0.29 nM
IC50, FGF-stimulated HUVEC proliferation (3H-thymidine) [4]: 0.85 nM

FGFR2alphaIIIc(145-377)(S252W) Fc5, truncated FGFR2-Fc S252W (A2560F) (Fc fusion)
Proliferation IC50, FGF8b-stimulated LNCap cells (3H-thymidine) [5]: 0.01 nM

FGFR2alphaIIIc(145-377)(P253R) Fc5, truncated FGFR2-Fc P253R (A2561F) (Fc fusion)
Proliferation IC50, FGF8b-stimulated LNCap cells (3H-thymidine) [5]: 0.01 nM

FGFR2alphaIIIc(145-377) Fc5, truncated FGFR2-Fc (A2559F) (Fc fusion)
Proliferation IC50, FGF8b-stimulated LNCap cells (3H-thymidine) [5]: 0.3 nM
